Changes are numbered by the printed parent chain. Where “and” joins values, the source holds several entries; their conditions need not be identical. Equal entries are not always repeated.
T1: WHT2483 (PROSS-MPNN stabilized design of PvRBP2b_(169-470)) (Plasmodium vivax strain Salvador I …, Gln378Leu | Arg418Glu)
T1 construct: PvRBP2b, P. vivax strain Salvador I, PVX_094255, residues 169-470 with 19 designed stabilising mutations; 19 mutations relative to the parental protein; crystal structure PDB 9DZC solved here
T1 chain: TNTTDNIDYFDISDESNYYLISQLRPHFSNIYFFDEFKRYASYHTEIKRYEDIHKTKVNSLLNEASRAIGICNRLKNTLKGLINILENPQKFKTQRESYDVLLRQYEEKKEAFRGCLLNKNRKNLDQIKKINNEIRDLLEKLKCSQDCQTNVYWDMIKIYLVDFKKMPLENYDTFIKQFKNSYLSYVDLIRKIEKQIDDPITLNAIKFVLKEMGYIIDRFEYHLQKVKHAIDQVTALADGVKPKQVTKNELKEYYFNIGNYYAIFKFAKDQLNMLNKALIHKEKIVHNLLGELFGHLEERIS

T2: WHT2484 (PROSS-MPNN stabilized design of PvRBP2b_(169-470)) (Plasmodium vivax strain Salvador I …, Lys248Leu | Met324Phe | Gln378Leu | Arg418Glu)
T2 construct: PvRBP2b, P. vivax strain Salvador I, PVX_094255, residues 169-470 with 26 designed stabilising mutations; 26 mutations relative to the parental protein; crystal structure PDB 9DZD solved here
T2 chain: T1 chain with K80L, K141R, M156F, I193Y, N204Q, V234I, L237I

B1: human mAb 283284 (antibody, V domains shown)
VH: QVQLQQWGAGLLKPSETLALTCTVYGGSSSGYYWNWIRQSPGKGLEWIGEISDSGSTIYNPSLESRVTMSVDTSKNQFSLKLTSVTAADTAVYYCAKAILTRYNWLDPWSQGTLVTVSS
VL: DIVMTQSPSSLSASVGDRISISCRASQGVNSALAWYQQKPGKAPKLLIYDASTLESGVPSRFSGSGSGTDFALTINSLQPEDFATYYCQQFNSYPLTFGGGTKVEIK
notes: naturally acquired human mAb, recombinant IgG captured by its Fc; source: Expi293 HEK cells, transfected, purified (protein A, SEC)
B2: human mAb 253245 (antibody, V domains shown)
VH: EVQLVQSGAEVKKPGSSMKVSCKASGGTFNRYVFSWVRQAPGQGLEWMGGILPILETTYYAKNFKGRVTITADESTSTVYMELSSLTSEDTAVYFCARDEHDYVWGSYRPSLTGPWGQGTLVTVSS
VL: QSALTQPPSTSGSPGQSVTISCTGTGIDVGGFSYVSWFQYHPGKAPKLIIFEVTKRPSGVPDRFSGSKSGNTASLTISGLQADDEAEYYCSSYAVNNNFVFGTGTKVTVL
notes: as for B1
B3: human mAb 237235 (antibody, V domains shown)
VH: QVQLVESGGGVVQPGRSLRLSCAASGFMFNSYGMHWVRQAPGKGLEWMAFISYDGSDDYYGDSVKGRITISRDNSKNTLFLHINSLRTEDTAVYYCAKESNYGENAFDVWGHGTMVTVSS
VL: QSALTQPRSVSGSPGQSVTISCTGTSNDVGFYNFVSWYQHHPGKAPKLMIYDVTERPSGVPDRFSGSKSGNTASLTISGLQAEDEAEYYCCSYAGTYTFVFGHGTKVTVL
notes: as for B1
B4: human mAb 243244 (antibody, V domains shown)
VH: QVQLVESGGGVVQSGKSLRVSCAASGFTFSSYGMHWVRQAPGKGLEWVAFISYDGDNKYSADSVKGRLTISRDNSKNTLYLQMNSLRPEDTAVYYCAKESNYGENAFDIWGQGTMVTVSS
VL: B3 VL with N27S, M49I, T54S, T76S, A82P, E87D, H103S
notes: as for B1
B5: human mAb 251249 (antibody, V domains shown)
VH: EVQLVESGGGLVKPGGSLRLSCEASGFLFSSYSMNWVRQAPGKGLEWVSSITGYSSEVFYTDSVKGRFTVSRDNSKNSLYLQMDSLRAEDTAVYYCARALTIFGVVITDYWFFDLWGRGTLVTVSS
VL: EIVLTQSPATLSLSPGDRATLSCRASQSVTTFLAWYQQKPGQAPRLLIYDVSNRATGIPARFSGSGSGTDFTLTISSLEPEDFAVYYCQQRSNWGLTFGGGTKVEIK
notes: as for B1
B6: human mAb 258259 (antibody, V domains shown)
VH: EVQLLESGGGLVRPGGSQRLSCAASGFTFTPYAMTWVRQAPGKGLEWLSTISGSGGSTYYADSVKGRFTISRDNSKNMLYLQMNSLTAEDTALYYCTKDKDEYTFGHNAFDVWGQGTMVTVSS
VL: SYELTQAPSVSVAPGQTARITCGGDNIGRKTVNWYQQKPGQAPVLVIYYDNDRPSGIPERFSGSNSGNMATLSISRVEVGDEADYYCQVWDSNNDHPVFGGGTKLTVV
notes: as for B1
B7: human mAb 273264 (antibody, V domains shown)
VH: B6 VH with Y59S, M78I, N84D, T87R, Q115R
VL: B6 VL with K30T, T31S, N33H, Y48F
notes: as for B1
B8: human mAb 241242 (antibody, V domains shown)
VH: EVQLLESGGGLVQPGGSLRLSCAVSGFTFRNYALSWVRQAPGKGLDWVSTISASGGATYYADSVKGHFTISRDNSKNILYLDMKSLRAEDTAIYYCARDGGSYTPYFFLDSWGQGALVTVSS
VL: SYELTQPASVSVAPGQTAQITCGGNSIGRKSIHWYQHKPGQAPVLVISYDSDRPSGIPERFSGSNSGNTATLTISKVEAGDEADFYCQVRDSDNDHVVFGGGTKLTVL
notes: as for B1

Target: T1, WHT2483 (PROSS-MPNN stabilized design …)
Experiment: BLI; Octet RED96; human mAb loaded on anti-human IgG Fc capture sensor tips; parental PvRBP2b169-470 or design in solution, 2-fold series 0.63 to 10 nM; 25 °C; PBS, 0.1% bovine serum albumin, 0.05% Tween-20; global fit 1:1 model; two independent experiments
Conditions: both partners purified
With B1 the kon was 838000 M⁻¹ s⁻¹ and 910000 M⁻¹ s⁻¹.
For B2, the kon was 1.04e+06 M⁻¹ s⁻¹ and 1.26e+06 M⁻¹ s⁻¹.
B3 showed a Kd of at most 0.01 nM.
In the case of B4, the Kd is reported as 0.053 nM and 0.018 nM and the kon is reported as 1.02e+06 M⁻¹ s⁻¹ and 1.24e+06 M⁻¹ s⁻¹.
For B5, the kon was 978000 M⁻¹ s⁻¹ and 1.37e+06 M⁻¹ s⁻¹.
For B6, the Kd was 0.085 nM and 0.059 nM, the koff was 6.59e-05 s⁻¹ and 5.6e-05 s⁻¹ and the kon was 778000 M⁻¹ s⁻¹ and 949000 M⁻¹ s⁻¹.
In the case of B7, the Kd is reported as 0.089 nM and 0.154 nM, the koff is reported as 6.92e-05 s⁻¹ and 0.000165 s⁻¹ and the kon is reported as 778000 M⁻¹ s⁻¹ and 1.07e+06 M⁻¹ s⁻¹.

Target: T2, WHT2484 (PROSS-MPNN stabilized design …)
Experiment: as above
Conditions: both partners purified
With B1 the Kd was 0.112 nM and 0.074 nM, the koff was 0.000113 s⁻¹ and 6.89e-05 s⁻¹ and the kon was 1.01e+06 M⁻¹ s⁻¹ and 936000 M⁻¹ s⁻¹.
With B8 the kon was 956000 M⁻¹ s⁻¹ and 1.18e+06 M⁻¹ s⁻¹.
In the case of B2, the kon is reported as 1.06e+06 M⁻¹ s⁻¹ and 1.12e+06 M⁻¹ s⁻¹.
In the case of B3, the kon is reported as 658000 M⁻¹ s⁻¹ and 745000 M⁻¹ s⁻¹.
With B4 the kon was 705000 M⁻¹ s⁻¹ and 780000 M⁻¹ s⁻¹.
For B5, the Kd was 0.11 nM and 0.314 nM and the kon was 956000 M⁻¹ s⁻¹ and 1.26e+06 M⁻¹ s⁻¹.
For B6, the Kd was 0.069 nM and 0.081 nM, the koff was 5.39e-05 s⁻¹ and 7.69e-05 s⁻¹ and the kon was 778000 M⁻¹ s⁻¹ and 953000 M⁻¹ s⁻¹.
B7 was tested, and the Kd was 0.139 nM and 0.101 nM, the koff was 0.000124 s⁻¹ and 0.000106 s⁻¹ and the kon was 893000 M⁻¹ s⁻¹ and 1.05e+06 M⁻¹ s⁻¹.

Each binder was assayed against T3, parental PvRBP2b_(169-470) (Plasmodium vivax reticulocyte-binding protein 2b, N-terminal domain) (Plasmodium vivax strain Salvador I, UniProt A5K736) in the same assay as above. Conditions: both partners purified.
T3 construct: TEV cleavage site between the His tag and the protein; pPROEX HTb vector; also called parental construct; parental protein
B1 was tested, and the Kd was under 1 pM, the koff was under 1e-07 s⁻¹ and the kon was 1.48e+06 M⁻¹ s⁻¹ and 994000 M⁻¹ s⁻¹.
With B8 the Kd was under 1 pM, the koff was under 1e-07 s⁻¹ and the kon was 1.24e+06 M⁻¹ s⁻¹ and 1.52e+06 M⁻¹ s⁻¹.
With B2 the Kd was under 1 pM, the koff was under 1e-07 s⁻¹ and the kon was 1.58e+06 M⁻¹ s⁻¹ and 1.18e+06 M⁻¹ s⁻¹.
With B3 the Kd was under 1 pM, the koff was under 1e-07 s⁻¹ and the kon was 1.78e+06 M⁻¹ s⁻¹ and 1.31e+06 M⁻¹ s⁻¹.
B4 was tested, and the Kd was under 1 pM, the koff was under 1e-07 s⁻¹ and the kon was 1.75e+06 M⁻¹ s⁻¹ and 1.32e+06 M⁻¹ s⁻¹.
For B5, the Kd was under 1 pM, the koff was under 1e-07 s⁻¹ and the kon was 1.63e+06 M⁻¹ s⁻¹ and 1.25e+06 M⁻¹ s⁻¹.
For B6, the Kd was under 1 pM, the koff was under 1e-07 s⁻¹ and the kon was 1.33e+06 M⁻¹ s⁻¹ and 976000 M⁻¹ s⁻¹.
B7 was tested, and the Kd was under 1 pM, the koff was under 1e-07 s⁻¹ and the kon was 1.18e+06 M⁻¹ s⁻¹ and 1e+06 M⁻¹ s⁻¹.

Source: paper PMC11929097, “Stabilized designs of the malaria adhesin protein PvRBP2b for use as a potential diagnostic for Plasmodium vivax [image fx2.gif]” (The Journal of Biological Chemistry, 2025)
